Test [1] concerns the target malondialdehyde modified LDL (UniProt P04114). Put plainly: plate binding ELISA on coated MDA-LDL, HEK293 supernatant; fold vs (-) control pCTM395 supernatant.
For test [2] the target is unchanged. The experiment in a line: plate binding ELISA on coated MDA-LDL; fold vs (-) control pCTM395 supernatant. For orientation: In an ELISA, binding on a coated surface is turned into a signal by an enzyme label.
In test [3] the target is C3b protein (UniProt P01024). Put plainly: plate binding ELISA on coated C3b, purified protein; reference.
Chain of C3b protein (P01024 23-667 limits assumed, chain 1 of 2): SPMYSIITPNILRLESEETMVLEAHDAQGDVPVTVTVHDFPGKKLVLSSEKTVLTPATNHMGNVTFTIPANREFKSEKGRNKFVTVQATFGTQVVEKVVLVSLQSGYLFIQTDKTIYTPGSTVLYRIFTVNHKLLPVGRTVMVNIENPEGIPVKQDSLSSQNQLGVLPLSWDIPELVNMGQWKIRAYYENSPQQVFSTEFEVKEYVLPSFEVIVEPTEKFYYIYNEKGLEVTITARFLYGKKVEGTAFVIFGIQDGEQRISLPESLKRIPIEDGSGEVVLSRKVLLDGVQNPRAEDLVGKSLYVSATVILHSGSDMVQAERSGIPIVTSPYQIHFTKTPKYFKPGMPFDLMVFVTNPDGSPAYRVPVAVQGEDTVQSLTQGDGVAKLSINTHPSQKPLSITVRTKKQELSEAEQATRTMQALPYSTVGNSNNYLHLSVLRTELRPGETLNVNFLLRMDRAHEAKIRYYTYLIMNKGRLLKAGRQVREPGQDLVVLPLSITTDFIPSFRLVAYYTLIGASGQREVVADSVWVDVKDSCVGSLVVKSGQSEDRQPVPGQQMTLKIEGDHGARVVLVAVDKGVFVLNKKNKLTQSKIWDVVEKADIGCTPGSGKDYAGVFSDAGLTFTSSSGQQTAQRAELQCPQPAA
Chain of C3b protein (P01024 749-1663 limits assumed, chain 2 of 2): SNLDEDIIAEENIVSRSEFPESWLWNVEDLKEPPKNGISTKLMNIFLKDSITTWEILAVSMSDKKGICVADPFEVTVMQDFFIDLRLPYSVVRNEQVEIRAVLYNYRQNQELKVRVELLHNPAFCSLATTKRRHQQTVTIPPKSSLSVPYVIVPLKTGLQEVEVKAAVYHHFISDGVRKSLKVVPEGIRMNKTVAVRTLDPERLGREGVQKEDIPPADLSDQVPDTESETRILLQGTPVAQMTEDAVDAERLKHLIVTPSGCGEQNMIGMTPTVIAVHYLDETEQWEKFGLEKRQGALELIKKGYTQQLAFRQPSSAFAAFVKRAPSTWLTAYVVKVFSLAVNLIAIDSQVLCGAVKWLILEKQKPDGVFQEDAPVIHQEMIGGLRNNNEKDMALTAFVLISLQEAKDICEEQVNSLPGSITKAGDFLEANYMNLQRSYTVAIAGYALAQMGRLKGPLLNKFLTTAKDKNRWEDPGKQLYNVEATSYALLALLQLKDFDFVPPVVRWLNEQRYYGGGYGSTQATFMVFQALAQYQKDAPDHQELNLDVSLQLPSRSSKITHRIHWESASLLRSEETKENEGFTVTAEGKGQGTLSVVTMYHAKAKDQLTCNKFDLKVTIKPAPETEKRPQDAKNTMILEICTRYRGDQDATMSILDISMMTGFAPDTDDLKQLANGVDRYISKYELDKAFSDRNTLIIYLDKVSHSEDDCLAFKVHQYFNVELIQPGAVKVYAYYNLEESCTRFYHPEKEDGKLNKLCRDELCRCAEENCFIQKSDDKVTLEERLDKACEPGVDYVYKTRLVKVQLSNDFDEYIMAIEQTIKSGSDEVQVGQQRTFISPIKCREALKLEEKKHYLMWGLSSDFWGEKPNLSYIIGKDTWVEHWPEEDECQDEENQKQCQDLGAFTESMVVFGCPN
A further test deals with C3 convertase, C3bBb (UniProt P01024). Put plainly: cell-based or functional assay.
Chain of C3 convertase, C3bBb (P01024 23-1663 limits assumed, chain 1 of 2): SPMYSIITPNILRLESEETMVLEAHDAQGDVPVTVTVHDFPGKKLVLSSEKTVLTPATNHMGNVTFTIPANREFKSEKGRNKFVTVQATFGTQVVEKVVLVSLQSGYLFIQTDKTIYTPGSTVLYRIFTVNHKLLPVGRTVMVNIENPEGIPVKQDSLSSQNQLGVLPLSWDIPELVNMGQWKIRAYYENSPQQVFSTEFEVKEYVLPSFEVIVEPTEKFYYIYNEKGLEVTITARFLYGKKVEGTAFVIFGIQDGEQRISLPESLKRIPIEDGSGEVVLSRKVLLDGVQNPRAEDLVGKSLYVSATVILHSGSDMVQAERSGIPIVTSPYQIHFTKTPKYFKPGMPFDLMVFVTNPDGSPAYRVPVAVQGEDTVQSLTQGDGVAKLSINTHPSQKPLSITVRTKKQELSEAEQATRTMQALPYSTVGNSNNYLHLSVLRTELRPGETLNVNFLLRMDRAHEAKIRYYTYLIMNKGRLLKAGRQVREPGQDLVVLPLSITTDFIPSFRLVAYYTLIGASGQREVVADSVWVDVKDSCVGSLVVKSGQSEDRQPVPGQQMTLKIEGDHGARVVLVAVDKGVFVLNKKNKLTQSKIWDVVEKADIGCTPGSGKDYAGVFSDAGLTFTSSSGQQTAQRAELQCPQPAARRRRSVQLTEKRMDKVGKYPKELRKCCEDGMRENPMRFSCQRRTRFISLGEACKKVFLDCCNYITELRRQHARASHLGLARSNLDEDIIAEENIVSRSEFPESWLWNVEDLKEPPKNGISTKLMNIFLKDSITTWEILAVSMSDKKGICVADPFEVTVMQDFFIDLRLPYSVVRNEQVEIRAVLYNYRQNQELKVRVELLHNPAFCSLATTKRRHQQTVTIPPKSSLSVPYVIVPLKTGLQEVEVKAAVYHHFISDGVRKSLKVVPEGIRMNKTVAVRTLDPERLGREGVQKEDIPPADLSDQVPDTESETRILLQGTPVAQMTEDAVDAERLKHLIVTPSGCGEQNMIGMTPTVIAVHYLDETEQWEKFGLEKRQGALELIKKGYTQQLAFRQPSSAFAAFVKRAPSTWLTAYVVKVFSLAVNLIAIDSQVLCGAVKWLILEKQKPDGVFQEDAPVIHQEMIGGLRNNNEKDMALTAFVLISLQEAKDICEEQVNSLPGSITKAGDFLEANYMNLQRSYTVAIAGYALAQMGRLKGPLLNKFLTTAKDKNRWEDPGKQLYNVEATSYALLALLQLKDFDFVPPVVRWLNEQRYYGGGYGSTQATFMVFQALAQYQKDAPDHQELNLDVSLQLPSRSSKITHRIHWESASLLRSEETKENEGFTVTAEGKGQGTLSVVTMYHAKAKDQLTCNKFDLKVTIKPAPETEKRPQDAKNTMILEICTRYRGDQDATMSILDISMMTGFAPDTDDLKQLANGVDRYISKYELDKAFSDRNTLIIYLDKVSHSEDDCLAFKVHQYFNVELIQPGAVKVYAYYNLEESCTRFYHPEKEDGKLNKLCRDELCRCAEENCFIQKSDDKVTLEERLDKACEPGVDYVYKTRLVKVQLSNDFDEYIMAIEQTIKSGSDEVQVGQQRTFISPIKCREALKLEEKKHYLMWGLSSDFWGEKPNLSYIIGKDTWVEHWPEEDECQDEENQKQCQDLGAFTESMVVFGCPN
Chain of C3 convertase, C3bBb (P00751 260-764 limits assumed, chain 2 of 2, further chain): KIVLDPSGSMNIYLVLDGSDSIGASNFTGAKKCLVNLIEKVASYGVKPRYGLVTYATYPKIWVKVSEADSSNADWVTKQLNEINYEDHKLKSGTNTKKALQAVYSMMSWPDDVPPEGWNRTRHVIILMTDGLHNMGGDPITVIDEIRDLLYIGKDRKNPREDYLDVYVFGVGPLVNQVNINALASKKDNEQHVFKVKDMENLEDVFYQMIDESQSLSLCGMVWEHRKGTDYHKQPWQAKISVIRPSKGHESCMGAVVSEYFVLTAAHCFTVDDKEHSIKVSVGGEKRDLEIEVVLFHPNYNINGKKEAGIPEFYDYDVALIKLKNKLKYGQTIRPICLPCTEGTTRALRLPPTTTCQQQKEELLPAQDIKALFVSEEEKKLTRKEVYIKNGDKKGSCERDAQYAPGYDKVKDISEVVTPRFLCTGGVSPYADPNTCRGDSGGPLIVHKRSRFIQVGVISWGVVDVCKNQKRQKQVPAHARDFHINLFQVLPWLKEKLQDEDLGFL
The next test deals with C3d ligand (UniProt P01024). Put plainly: plate binding assay on C3d, purified protein; reference.
Chain of C3d ligand (P01024 1002-1303 limits assumed): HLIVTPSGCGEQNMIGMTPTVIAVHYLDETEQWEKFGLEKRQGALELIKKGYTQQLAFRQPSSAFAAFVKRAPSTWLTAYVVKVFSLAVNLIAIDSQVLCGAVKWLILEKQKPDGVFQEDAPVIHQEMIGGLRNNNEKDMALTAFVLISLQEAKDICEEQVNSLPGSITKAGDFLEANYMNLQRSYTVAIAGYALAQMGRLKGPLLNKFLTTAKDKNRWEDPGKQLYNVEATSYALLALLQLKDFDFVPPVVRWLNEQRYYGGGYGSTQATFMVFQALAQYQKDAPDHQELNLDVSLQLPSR
For test [4], the target named is malondialdehyde modified LDL (UniProt P04114). Put plainly: plate binding ELISA on coated MDA-LDL, purified protein; reference.
A further test addresses T1, CRP (UniProt P02741).
T1 sequence (looked up): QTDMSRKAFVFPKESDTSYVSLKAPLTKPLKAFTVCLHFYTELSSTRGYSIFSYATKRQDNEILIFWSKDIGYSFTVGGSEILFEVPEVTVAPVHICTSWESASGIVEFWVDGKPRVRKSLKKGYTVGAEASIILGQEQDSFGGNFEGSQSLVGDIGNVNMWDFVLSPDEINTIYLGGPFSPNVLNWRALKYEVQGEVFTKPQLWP
The experiment in a line: plate binding ELISA on coated CRP, purified protein; reference.

The target in test [5] is C3b protein (UniProt P01024). The experiment in a line: plate binding ELISA on coated C3b, HEK293 supernatant 25 ng/mL; fold vs (-) control pCTM395 supernatant.

Chain of CFHT.0 purified recombinant protein (pCTM134) (P08603 other isoform, or with tags, fused parts or gaps limits assumed): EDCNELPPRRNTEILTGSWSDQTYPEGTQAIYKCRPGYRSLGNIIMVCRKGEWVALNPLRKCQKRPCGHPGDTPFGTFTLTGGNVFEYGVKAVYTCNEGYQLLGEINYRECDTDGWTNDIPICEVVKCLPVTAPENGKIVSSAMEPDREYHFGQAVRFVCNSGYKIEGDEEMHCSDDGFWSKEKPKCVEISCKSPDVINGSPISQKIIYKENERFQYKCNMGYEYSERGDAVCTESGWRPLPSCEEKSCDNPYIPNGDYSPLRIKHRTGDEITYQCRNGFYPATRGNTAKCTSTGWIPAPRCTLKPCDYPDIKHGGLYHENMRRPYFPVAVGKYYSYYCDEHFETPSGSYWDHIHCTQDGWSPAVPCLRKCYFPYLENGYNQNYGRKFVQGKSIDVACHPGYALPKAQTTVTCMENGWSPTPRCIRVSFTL
Chain of rCFHT-I62 Protein (P08603 other isoform, or with tags, fused parts or gaps limits assumed): as above
Chain of CFHT.0 (pCTM297) (P08603 other isoform, or with tags, fused parts or gaps limits assumed): as above
Chain of His-CFHT.0 (pCTM447) (P08603 other isoform, or with tags, fused parts or gaps limits assumed): as above

“CFHT.0 (pCTM297) (from UniProt P08603 19-445)” returned a Fold Activity at Highest Dose (Relative to Control) in test [1] of 1.5 fold.
“rCFHT-I62 Protein (from UniProt P08603 19-445)” had a Fold Activity at Highest Dose (Relative to Control) in test [2] of 52 fold.
Consider “CFHT.0 purified recombinant protein (pCTM134) (from UniProt P08603 19-445)”, for which the Fold Activity (Compared to CFHT-I62) (with C3b protein [3]; with C3d ligand; in test [4]; with CRP) was 1 fold in each case. The IC50, decay acceleration activity (DAA) assay with C3 convertase, C3bBb amounted to 1.95 nM.
Turning to “His-CFHT.0 (pCTM447) (from UniProt P08603 19-445)”, the Fold Activity at Highest Dose (Relative to Control) came out at 1.4 fold in test [1] and 1.5 fold with C3b protein [5].
